Experimental data from PMC9122588, “Control of bacterial immune signaling by a WYL domain transcription factor”.

Biological target: T1, Pa CapW (Pseudomonas aeruginosa PA17, UniProt P0DX74 1-299)
T1 sequence: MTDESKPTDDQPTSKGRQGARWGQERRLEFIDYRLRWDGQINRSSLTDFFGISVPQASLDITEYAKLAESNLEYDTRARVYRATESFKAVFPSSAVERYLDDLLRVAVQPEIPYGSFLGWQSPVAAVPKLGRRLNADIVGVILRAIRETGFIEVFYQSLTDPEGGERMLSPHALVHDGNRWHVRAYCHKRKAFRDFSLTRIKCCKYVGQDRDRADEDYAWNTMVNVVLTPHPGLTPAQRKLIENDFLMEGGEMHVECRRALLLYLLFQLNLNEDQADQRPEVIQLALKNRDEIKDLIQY
Assay: fluorescence polarization; 5 mM MgCl2; FP: 25 mM Tris pH 8.5, 50 mM NaCl, 5% glycerol, 5 mM MgCl2, 1 mM DTT, 0.01% NP-40 substitute, 50 nM DNA, 10 min, RT; EMSA: 50 mM Tris-HCl pH 8.5, 50 mM NaCl, 5
Settings: protein: recombinant; tags: N-terminal His6-TEV, cleaved; chain copies: 2; label: 5'-6-FAM on one strand; blunt

B1: Probe #4 (dsDNA)
DNA 1: CTAAAAACTATGCGTATAGTAATAATACGC
DNA 2: GCGTATTATTACTATACGCATAGTTTTTAG
Binder B1 has a Kd of 1000 ± 100 nM.
